Reference: patent US20260167699A1 (Chugai, published 2026)
Each block holds one binder with its values, some of them ahead of it.

Biological target: T1, FcγRIIIa extracellular domain, C-terminal His tag (human, UniProt P08637 17-208)
T1 construct: extracellular domain; also called 3a
Assay: SPR, binding activity relative to GpH7-A5/GpH7-B3/GpL16-k0 (=100)

T1 sequence (P08637 other isoform, or with tags, fused parts or gaps): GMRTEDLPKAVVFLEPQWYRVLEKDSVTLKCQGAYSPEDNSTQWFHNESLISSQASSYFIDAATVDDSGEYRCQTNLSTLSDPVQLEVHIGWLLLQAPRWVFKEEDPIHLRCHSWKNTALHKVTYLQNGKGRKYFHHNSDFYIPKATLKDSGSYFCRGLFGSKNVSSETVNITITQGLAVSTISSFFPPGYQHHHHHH

He/Con 3a: 71.6%
B5: GpH7-A5/GpH7-B3 variant P331_09D/GpL16-k0 (antibody, human IgG1, kappa)
heavy 1: not shown
heavy 2: not shown
light: DIVMTQSPLSLPVTPGEPASISCQASESLVHSNRNTYLHWYLQKPGQSPQLLIYKVSNRFSGVPDRFSGSGSGTDFTLKISRVEAEDVGVYYCSQNTHVPPTFGQGTKVEIERTVAAPSVFIFPPSDEQLKSGTASVVCLLNNFYPREAKVQWKVDNALQSGNSQESVTEQDSKDSTYSLSSTLTLSKADYEKHKVYACEVTHQGLSSPVTKSFNRGEC
notes: He Ab; copies: 1 + 1 + 2

He/Con 3a: 71.9%
B9: GpH7-A5/GpH7-B3 variant P331_20W/GpL16-k0 (antibody, human IgG1, kappa)
heavy 1: not shown
heavy 2: not shown
light: B5 light
notes: He Ab; copies: 1 + 1 + 2

He/Con 3a: 104%
B11: GpH7-A5/GpH7-B3 variant S239_18N/GpL16-k0 (antibody, human IgG1, kappa)
heavy 1: not shown
heavy 2: not shown
light: B5 light
notes: He Ab; copies: 1 + 1 + 2

He/Con 3a: 71.9%
B16: GpH7-A5/GpH7-B3 variant S298_16H/GpL16-k0 (antibody, human IgG1, kappa)
heavy 1: not shown
heavy 2: not shown
light: B5 light
notes: He Ab; copies: 1 + 1 + 2

He/Con 3a: 86.2%
B18: GpH7-A5/GpH7-B3 variant Q295_03V/GpL16-k0 (antibody, human IgG1, kappa)
heavy 1: not shown
heavy 2: not shown
light: B5 light
notes: He Ab; copies: 1 + 1 + 2

He/Con 3a: 105%
B21: GpH7-A5/GpH7-B3 variant Q295_10E/GpL16-k0 (antibody, human IgG1, kappa)
heavy 1: not shown
heavy 2: not shown
light: B5 light
notes: He Ab; copies: 1 + 1 + 2

He/Con 3a: 149%
B23: GpH7-A5/GpH7-B3 variant S267_02A/GpL16-k0 (antibody, human IgG1, kappa)
heavy 1: not shown
heavy 2: not shown
light: B5 light
notes: He Ab; copies: 1 + 1 + 2

He/Con 3a: 73.9%
B24: GpH7-A5/GpH7-B3 variant S239_06M/GpL16-k0 (antibody, human IgG1, kappa)
heavy 1: not shown
heavy 2: not shown
light: B5 light
notes: He Ab; copies: 1 + 1 + 2

He/Con 3a: 52.1%
B26: GpH7-A5/GpH7-B3 variant S298_12R/GpL16-k0 (antibody, human IgG1, kappa)
heavy 1: not shown
heavy 2: not shown
light: B5 light
notes: He Ab; copies: 1 + 1 + 2

He/Con 3a: 101%
B28: GpH7-A5/GpH7-B3 variant Q295_07I/GpL16-k0 (antibody, human IgG1, kappa)
heavy 1: not shown
heavy 2: not shown
light: B5 light
notes: He Ab; copies: 1 + 1 + 2

He/Con 3a: 87.2%
B30: GpH7-A5/GpH7-B3 variant S298_06M/GpL16-k0 (antibody, human IgG1, kappa)
heavy 1: not shown
heavy 2: not shown
light: B5 light
notes: He Ab; copies: 1 + 1 + 2

He/Con 3a: 120%
B31: GpH7-A5/GpH7-B3 variant Q295_08L/GpL16-k0 (antibody, human IgG1, kappa)
heavy 1: not shown
heavy 2: not shown
light: B5 light
notes: He Ab; copies: 1 + 1 + 2

Continued, binder first:

B1: GpH7-A5/GpH7-B3 variant Q295_18N/GpL16-k0 (antibody, human IgG1, kappa)
heavy 1: not shown
heavy 2: not shown
light: B5 light
notes: He Ab; copies: 1 + 1 + 2
He/Con 3a: 85.7%

B2: GpH7-A5/GpH7-B3 variant S267_06M/GpL16-k0 (antibody, human IgG1, kappa)
heavy 1: not shown
heavy 2: not shown
light: B5 light
notes: He Ab; copies: 1 + 1 + 2
He/Con 3a: 65.3%

B3: GpH7-A5/GpH7-B3 variant S239_01G/GpL16-k0 (antibody, human IgG1, kappa)
heavy 1: not shown
heavy 2: not shown
light: B5 light
notes: He Ab; also called 3239_01G; copies: 1 + 1 + 2
He/Con 3a: 72%

B4: GpH7-A5/GpH7-B3 variant S298_11K/GpL16-k0 (antibody, human IgG1, kappa)
heavy 1: not shown
heavy 2: not shown
light: B5 light
notes: He Ab; copies: 1 + 1 + 2
He/Con 3a: 50%

B6: GpH7-A5/GpH7-B3 variant P331_14T/GpL16-k0 (antibody, human IgG1, kappa)
heavy 1: not shown
heavy 2: not shown
light: B5 light
notes: He Ab; copies: 1 + 1 + 2
He/Con 3a: 67.8%

B7: GpH7-A5/GpH7-B3 variant Q295_01G/GpL16-k0 (antibody, human IgG1, kappa)
heavy 1: not shown
heavy 2: not shown
light: B5 light
notes: He Ab; copies: 1 + 1 + 2
He/Con 3a: 76.6%

B8: GpH7-A5/GpH7-B3 variant P331_10E/GpL16-k0 (antibody, human IgG1, kappa)
heavy 1: not shown
heavy 2: not shown
light: B5 light
notes: He Ab; copies: 1 + 1 + 2
He/Con 3a: 68.7%

B10: GpH7-A5/GpH7-B3 variant P331_16H/GpL16-k0 (antibody, human IgG1, kappa)
heavy 1: not shown
heavy 2: not shown
light: B5 light
notes: He Ab; copies: 1 + 1 + 2
He/Con 3a: 73.4%

B12: GpH7-A5/GpH7-B3 variant S267_18N/GpL16-k0 (antibody, human IgG1, kappa)
heavy 1: not shown
heavy 2: not shown
light: B5 light
notes: He Ab; copies: 1 + 1 + 2
He/Con 3a: 52%

B13: GpH7-A5/GpH7-B3 variant Q295_02A/GpL16-k0 (antibody, human IgG1, kappa)
heavy 1: not shown
heavy 2: not shown
light: B5 light
notes: He Ab; copies: 1 + 1 + 2
He/Con 3a: 111%

B14: GpH7-A5/GpH7-B3 variant S239_10E/GpL16-k0 (antibody, human IgG1, kappa)
heavy 1: not shown
heavy 2: not shown
light: B5 light
notes: He Ab; copies: 1 + 1 + 2
He/Con 3a: 171%

B15: GpH7-A5/GpH7-B3 variant S298_14T/GpL16-k0 (antibody, human IgG1, kappa)
heavy 1: not shown
heavy 2: not shown
light: B5 light
notes: He Ab; copies: 1 + 1 + 2
He/Con 3a: 106%

B17: GpH7-A5/GpH7-B3 variant Q295_05P/GpL16-k0 (antibody, human IgG1, kappa)
heavy 1: not shown
heavy 2: not shown
light: B5 light
notes: He Ab; copies: 1 + 1 + 2
He/Con 3a: 74.4%

B19: GpH7-A5/GpH7-B3 variant S298_18N/GpL16-k0 (antibody, human IgG1, kappa)
heavy 1: not shown
heavy 2: not shown
light: B5 light
notes: He Ab; copies: 1 + 1 + 2
He/Con 3a: 51.4%

B20: GpH7-A5/GpH7-B3 variant Q295_15Y/GpL16-k0 (antibody, human IgG1, kappa)
heavy 1: not shown
heavy 2: not shown
light: B5 light
notes: He Ab; copies: 1 + 1 + 2
He/Con 3a: 81.5%

B22: GpH7-A5/GpH7-B3 variant S267_09D/GpL16-k0 (antibody, human IgG1, kappa)
heavy 1: not shown
heavy 2: not shown
light: B5 light
notes: He Ab; copies: 1 + 1 + 2
He/Con 3a: 179%

B25: GpH7-A5/GpH7-B3 variant S239_19Q/GpL16-k0 (antibody, human IgG1, kappa)
heavy 1: not shown
heavy 2: not shown
light: B5 light
notes: He Ab; copies: 1 + 1 + 2
He/Con 3a: 53.8%

B27: GpH7-A5/GpH7-B3 variant P331_13S/GpL16-k0 (antibody, human IgG1, kappa)
heavy 1: not shown
heavy 2: not shown
light: B5 light
notes: He Ab; copies: 1 + 1 + 2
He/Con 3a: 80.9%

B29: GpH7-A5/GpH7-B3 variant Q295_11K/GpL16-k0 (antibody, human IgG1, kappa)
heavy 1: not shown
heavy 2: not shown
light: B5 light
notes: He Ab; copies: 1 + 1 + 2
He/Con 3a: 81.8%
